Test results from the supplement of paper PMC9942255.

Test system: Bacillus subtilis DB104 (SP-AmyQ fusion secretion)
Experiment: AmyQ secretion efficiency, weighted average sort bin (1 = best secretion, 10 = worst) (bin number (weighted average, 1-10)); higher = lower secretion efficiency
In short: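 In this assay, the secretion score is defined as the average bin number weighted by read frequency, normalised to beads per bin, with low-abundance sequences not counted. B. subtilis DB104 cells expressing mature AmyQ behind designed signal peptides (amyE-integrated) were enclosed with fluorescein-starch in ~65 nL alginate beads at about 0.3 cells per bead. Beads grew about 13 h at room temperature, were stained with nile red, and occupied beads went into 10 equally populated green/red fluorescence ratio bins by large-particle flow cytometry, whose amplicons were Illumina-sequenced.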

| Sequence | AmyQ secretion efficiency |
| --- | --- |
| MKRIRIPMTLALGAALTIAPLSFASAEED | 3.29 |
| MSNLCVMMLLFSAIASFPVSAQAKDQ | 3.93 |
| MKLWMRKTLVVLFTIVTFGLVSPPAALMTDKP | 2.85 |
| MPYLKRVLLLLVTGLFMSLFAVTATASWQTG | 2.84 |
| MRSYIKVLTMCFLGLILFVPTILADNS | 2.6 |
| MKSKWMSGLLLVAVGFSFTQVMVHNGET | 8.98 |
| MNKKYFVLIVCIIFTSALFPTRRKKKRVTAAQG | 8.37 |
| MKKIAGVLTVAAAAMTAKMYATAKGN | 7.41 |
| MKRLFMKARRKKKAVVFVFAVKGAPAKAETH | 8.85 |
| MKQIMIFLTSFMLLAMTGTTALAKDV | 3.67 |
| MLTLRTLCVLMILSGVIFFGLKIDAKDI | 6.18 |
| MRNLTKTSLLLAGLCTAAQMVFVTHLSAEES | 3.52 |
| MKKIGLLFMLCLAALFTIGFPAQQADAAPR | 1.25 |
| MKLKSKLLLSCLALSTVFVLFSTATTIANAPTH | 4.84 |
| MKRIRIPMTLALGAALTIAPLSFASVEEN | 6.71 |
| MKTLRNMLSTLCVLMILSGVIFFGLKIDAKDI | 6.22 |
| MYKKFVPFAVFLFLFFVSFEMMENCHALDY | 7.9 |
| MRSYIKVLTMCFLGLILFVPTTVVALADNS | 2.15 |
| MRKKCKVCLWILVLLLSCLSGKSAYAATS | 2.26 |
| MKKAAAVLLSLGLVFGFSYGAGHVAEGKTK | 2.6 |
| MKKRITYSGSQLLAVVAFAFTDSSKAKAAEA | 8.92 |
| MAIIIAIIAAVIVIAALITFNVRNMSPG | 7.67 |
| MKKWMITIAMRTLAGIALFVFISPLKSHKT | 7.06 |
| MKKWMAGLFLAAAVLLCLMVPQQIQPASS | 7.7 |

| Sequence | AmyQ secretion efficiency |
| --- | --- |
| MKRITINIITMFIAAAVIKRRRRKKAEAAEK | 6.55 |
| MRKVITCVMAASLTLGSLLPAGYASAKED | 3.26 |
| MGLGKKLSVAVAASFMSLSISLPGVQRAEG | 2.64 |
| MTKKAWFLPLVCVLLISGWLAPAASASNQTT | 2.2 |
| MKKKLAAGLTASAIVGTTLVVTPEEAATI | 5.83 |
| MRNLTKMMNTSLLLAGLCTAAQMVFVTHASAEES | 2.48 |
| MKKFLLVSFVLFFALSTGITGVQAAPA | 2.2 |
| MNLRKILLSSALSLGMLVSAAPVLGTSS | 4.45 |
| MKKAAAVLLSLGLVFEDEDEAGHVAEAKTK | 5.2 |
| MKVLLSALLLLLFAFEPSKSGKKL | 6.03 |
| MLCVMMLLFSAIAEEEDEEAQAKDQ | 7.25 |
| MKKAFLVFLSVVLVTTVFLVKQQESVAQHKQL | 4.12 |
| MRSYIKVLTMCFLGLILFVRRKALADNS | 6.5 |
| MKKRFFGPIILAFILFAGVIAIPS | 6.86 |
| MKRTLPLLIVCLAFSSFSASARAASE | 2.25 |
| MTKKAWFLPLVCVLLISGWLAPAASASTQTT | 2.01 |
| MKKQIITATTAVVLGSTLFAGAKSAQSI | 3.92 |
| MRKAVLLSLIMLIAGFLISFSFQM | 7.21 |
| MKRLFMKASLVLFAVVFVFKPAKAETH | 3.15 |
| MMKKGLLAGALTATVLFIGTCAVDVPGIISPKTAEAASQ | 1.04 |
| MHLIRAKGAVCLAVVLIAGCRFNEDQHQAEGENT | 6.02 |
| MGRFSTAYLLLGILCSAAVFLIGAPSRALGAEV | 2.59 |
| MRKYTVIASILLSFLSVLSGGHHESKAFPR | 4.58 |
| MKRIRIPMTLALGAALTIAPLSFSSAEEN | 4.73 |
